The record followed here is patent US20090246142A1 (published 2009).

Square brackets hold non-standard residues; d marks the D form. pY = N[C@@H](Cc1ccc(OP(=O)(O)O)cc1)C(=O)O; Ahx = NCCCCCC(=O)O

For assay [1], the target named is T1, Crk SH2 domain with an N-terminal cysteine (cys-SH2), conjugated to iron oxide nanoparticles (SH2 TSACs) (UniProt P46108 13-118, limits assumed, N-terminal cysteine added by genetic modification and conjugated to aminated nanoparticles through NHS-PEO12-maleimide).
T1 construct: domain: SH2 domain; also called cysteine-SH2; Crk-SH2 TSACs
T1 sequence (P46108 13-118 limits assumed): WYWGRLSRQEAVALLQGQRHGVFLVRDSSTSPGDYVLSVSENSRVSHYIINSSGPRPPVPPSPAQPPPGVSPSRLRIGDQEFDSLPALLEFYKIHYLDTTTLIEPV
Description: DLS of nanoparticle assembly in the presence of Abl kinase.

Assay [2] has as its target T1, Crk SH2 domain with an N-terminal …. Description: DLS of nanoparticle assembly.

B1: TAMRA-(Ahx)SRVGEEEHVFSFPNKQKSAEC-CONH2 (Abl substrate with the tyrosine replaced by phenylalanine) on nanoparticles (F-Abl TSACs) (peptide)
peptide: {TAMRA-Ahx}-SRVGEEEHVFSFPNKQKSAEC-NH2
modifications: not fully specified (residue 21); printed as TAMRA-(Ahx)SRVGEEEHVFSFPNKQKSAEC-CONH2; also: Cys conjugated to nanoparticle via NHS-PEO12-maleimide
notes: also called phenylalanine-Abl substrate TSACs; phenylalanine substrate TSACs
B1: the binding result in assay [1] is “no binding (tested: 10 µg Fe/ml (12 nM TSAC concentration))”.

B2: TAMRA-(Ahx)EAIpYAAPFAKKKC-CONH2 (non-binding Abl substrate, phosphorylated) on nanoparticles (peptide)
peptide: {TAMRA-Ahx}-EAI[pY]AAPFAKKKC-NH2
modifications: not fully specified (residue 13); also: Cys conjugated to nanoparticle via NHS-PEO12-maleimide
B2: the binding result in assay [2] is “no binding (tested: 10 µg Fe/ml (12 nM TSAC concentration))”.
